Experimental data: patent publication US20080081783A1 (published 2008)
Like-named read-outs stand apart in the source and are kept apart here. One block for each binder: values may come before it. Bridge positions count the residues as written; N and C are the ends. Square brackets hold non-standard residues; d marks the D form. Ends that are not written are not given here. 1Nal = N[C@@H](Cc1cccc2ccccc12)C(=O)O; Sar = CNCC(=O)O

How the values were obtained:
[1] = target: recombinant EPO-R (produced in Chinese Hamster Ovary cells as a fusion protein to a portion of the human … (human, UniProt P05187 490-506)); experiment: competitive binding; the column head says only 'IC50'; taken as the AlphaQuest bead proximity assay against the biotinylated tracer SEQ ID NO: 4, by paragraph 206
human EPO-R [2] = target: T1, human EPO-R (human, UniProt P19235 25-508); experiment: cell-based or functional assay
T1 sequence (looked up): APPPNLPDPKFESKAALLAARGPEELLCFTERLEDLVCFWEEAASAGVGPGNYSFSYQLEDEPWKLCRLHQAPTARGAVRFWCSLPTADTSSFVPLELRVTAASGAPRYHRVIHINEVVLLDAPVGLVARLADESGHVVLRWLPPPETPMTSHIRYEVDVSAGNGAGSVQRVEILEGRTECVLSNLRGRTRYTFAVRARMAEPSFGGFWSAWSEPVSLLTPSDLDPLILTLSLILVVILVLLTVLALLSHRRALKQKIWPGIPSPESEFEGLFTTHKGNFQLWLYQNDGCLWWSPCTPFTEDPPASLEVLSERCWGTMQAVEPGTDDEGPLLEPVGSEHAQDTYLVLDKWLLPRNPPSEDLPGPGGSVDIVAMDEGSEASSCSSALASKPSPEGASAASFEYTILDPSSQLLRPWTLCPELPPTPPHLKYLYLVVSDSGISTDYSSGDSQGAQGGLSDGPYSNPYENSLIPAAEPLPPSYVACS

[3] = target: T2, chimeric receptor comprising the extra-cellular portion of the human EPO receptor to the intra-cellular … (human, UniProt P19235 25-250; Q99062 651-836, limits assumed); experiment: cell-based or functional assay
T2 sequence (looked up): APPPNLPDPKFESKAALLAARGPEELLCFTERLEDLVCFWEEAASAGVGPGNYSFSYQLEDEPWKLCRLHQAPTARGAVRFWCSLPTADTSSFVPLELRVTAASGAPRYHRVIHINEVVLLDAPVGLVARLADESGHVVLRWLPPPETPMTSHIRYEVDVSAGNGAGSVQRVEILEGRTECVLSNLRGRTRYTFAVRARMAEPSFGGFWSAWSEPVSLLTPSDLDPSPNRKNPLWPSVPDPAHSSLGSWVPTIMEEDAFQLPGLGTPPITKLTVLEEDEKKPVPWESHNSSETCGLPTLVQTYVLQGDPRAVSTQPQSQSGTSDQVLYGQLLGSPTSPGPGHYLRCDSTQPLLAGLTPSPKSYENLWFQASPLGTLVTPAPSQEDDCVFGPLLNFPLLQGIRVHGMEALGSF

human EPO-R [4] = target: T1, human EPO-R; experiment: cell-based or functional assay; remark: listed apart in the source
[5] = target: T2, chimeric receptor comprising the …; experiment: cell-based or functional assay; remark: listed apart in the source
[6] = target: T3, Recombinant Human EPO R/Fc Chimera (human, UniProt P19235 25-250); experiment: radioligand competition; competitor 125I-EPO; EPO R/Fc chimera captured on protein-G Sepharose
T3 construct: extracellular domain; Bought from R&D Systems, catalog number 963-ER; also called recombinant EPOr extracellular domain fused to the Fc portion of human IgG1; recombinant erythropoietin receptor; not shown: Fc portion of human IgG1
T3 sequence (looked up): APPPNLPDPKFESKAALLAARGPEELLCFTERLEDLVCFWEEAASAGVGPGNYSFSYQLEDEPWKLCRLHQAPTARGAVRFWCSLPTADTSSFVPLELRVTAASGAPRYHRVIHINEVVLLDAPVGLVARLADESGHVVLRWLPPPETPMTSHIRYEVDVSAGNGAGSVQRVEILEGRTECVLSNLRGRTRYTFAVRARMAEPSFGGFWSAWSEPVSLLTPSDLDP

IC50 [1]: 0.11 nM
B1: Peptide II (SEQ ID NO: 3) (peptide)
peptide: Ac-XGLYACHMGPIT[1Nal]VCQPLR[Sar]
modifications: disulfide 6-15 (inferred); not fully specified (residue 1); printed as (AcG)GLYACHMGPIT(1-nal)VCQPLR(MeG); also: homodimer, C-termini joined to alpha- and epsilon-amino groups of a lysine linker, PEG attached through a spacer, linkage and PEG size not readable
notes: What sets it apart from Peptide III (PEG linkage or size) stands only in drawing CHEM-US-00080

Proliferation EC50 (human EPO-R [2]): 72 nM
Reporter EC50 [3]: 150 pM
B2: Peptide III (SEQ ID NO: 3) (peptide)
peptide: Ac-XGLYACHMGPIT[1Nal]VCQPLR[Sar]
modifications: disulfide 6-15; not fully specified (residue 1); printed as (AcG)GLYACHMGPIT(1-nal)VCQPLR(MeG); also: homodimer, C-termini joined to alpha- and epsilon-amino groups of a lysine linker, PEG attached through a spacer, linkage and PEG size not readable

Proliferation EC50 (human EPO-R [4]): 165 pM
Reporter EC50 [5]: 195 pM
IC50 [6]: 0.111 nM
B3: Peptide I (SEQ ID NO: 2) (peptide)
peptide: Ac-XGLYACHMGPIT[1Nal]VCQPLR[Sar]K
modifications: disulfide 6-15; not fully specified (residues 1, 21); printed as (AcG)GLYACHMGPIT(1-nal)VCQPLR(MeG)K; also: homodimer joined by a branched tertiary amide linker on the epsilon-N of Lys21, PEG attached through a spacer, exact linker and PEG structure not readable
notes: The exact structure (linker, spacer, PEG size, carbamate or amide linkage) stands only in drawing CHEM-US-00099, which is not readable here
